Measurements published in paper PMC12775136.

Molecular target: UPF1-Hel (human)

For “full-length SLBP (SLBPfl) (from UniProt Q14493 1-270) (natural protein)”, the extent of linear RNA substrate unwound by UPF1-Hel (fluorescence-based nucleic acid unwinding assay) with SLBPfl at equimolar amount to 3-fold molar excess; further decrease at 3-fold excess was 66%.
